Source: paper PMC8640019 (Nature Communications, 2021)
“And” between values parts separate entries of the source, which are not always exact repeats. Identical values can stand only once. Square brackets hold non-standard residues; d marks the D form. Ends that are not written are not given here. pY = N[C@@H](Cc1ccc(OP(=O)(O)O)cc1)C(=O)O

Experiments:
SOCS2-Elo B/C + F3 [1] = target: T1, SOCS2-Elo B/C + F3 (human, UniProt O14508 32-198; Q15370 1-118; Q15369 17-112); assay: ITC
F3 peptide = assay: NMR titration
SOCS2-Elo B/C + F3 [2] = target: T1, SOCS2-Elo B/C + F3; assay: ITC; remark: listed apart in the source

T1 sequence (Q15370 whole entry, chain 2 of 2): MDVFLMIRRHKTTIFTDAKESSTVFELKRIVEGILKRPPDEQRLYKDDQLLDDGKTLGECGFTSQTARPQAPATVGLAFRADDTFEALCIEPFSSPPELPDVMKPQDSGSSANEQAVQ
T1 sequence (Q15369 17-112, chain 3 of 2): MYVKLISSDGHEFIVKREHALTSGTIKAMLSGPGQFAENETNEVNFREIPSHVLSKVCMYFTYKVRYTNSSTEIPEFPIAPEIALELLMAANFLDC

Binder | stoichiometry N (SOCS2-Elo B/C + F3 [1]) | binding result (F3 peptide) | Kd (SOCS2-Elo B/C + F3 [2])
STASTVQ[pY]STVVHSG [gp130 pY757 peptide] | 0.738 and 0.632 | – | –
SOCS2-SH2^32–159 (domain or fragment, human, UniProt O14508 32-159, looked up) QAARLAKALRELGQTGWYWGSMTVNEAKEKLKEAPEGTFLIRDSSHSDYLLTISVKTSAGPTNLRIEYQDGKFRLDSIICVKSKLKQFDSVVHLIDYYVQMCKDKRTGPEAPRNGTVHLYLTKPLYTS | – | binds | –
Cullin5 N-terminal domain (Cul5^1-384) (domain or fragment) MATSNLLKNKGSLQFEDKWDFMRPIVLKLLRQESVTKQQWFDLFSDVHAVCLWDDKGPAKIHQALKEDILEFIKQAQARVLSHQDDTALLKAYIVEWRKFFTQCDILPKPFCQLEITLMGKQGSNKKSNVEDSIVRKLMLDTWNESIFSNIKNRLQDSAMKLVHAERLGEAFDSQLVIGVRESYVNLCSNPEDKLQIYRDNFEKAYLDSTERFYRTQAPSYLQQNGVQNYMKYADAKLKEEEKRALRYLETRRECNSVEALMECCVNALVTSFKETILAECQGMIKRNETEKLHLMFSLMDKVPNGIEPMLKDLEEHIISAGLADMVAAAETITTDSEKYVEQLLTLFNRFSKLVKEAFQDDPRFLTARDKAYKAVVNDATIFK | 0.81 | – | 41 nM
